These are literature values, as cited in article PMC3081175.

The target of the series is c-Met (Homo sapiens) (UniProt P08581).
UniProt P08581, sequence (P08581 25-932): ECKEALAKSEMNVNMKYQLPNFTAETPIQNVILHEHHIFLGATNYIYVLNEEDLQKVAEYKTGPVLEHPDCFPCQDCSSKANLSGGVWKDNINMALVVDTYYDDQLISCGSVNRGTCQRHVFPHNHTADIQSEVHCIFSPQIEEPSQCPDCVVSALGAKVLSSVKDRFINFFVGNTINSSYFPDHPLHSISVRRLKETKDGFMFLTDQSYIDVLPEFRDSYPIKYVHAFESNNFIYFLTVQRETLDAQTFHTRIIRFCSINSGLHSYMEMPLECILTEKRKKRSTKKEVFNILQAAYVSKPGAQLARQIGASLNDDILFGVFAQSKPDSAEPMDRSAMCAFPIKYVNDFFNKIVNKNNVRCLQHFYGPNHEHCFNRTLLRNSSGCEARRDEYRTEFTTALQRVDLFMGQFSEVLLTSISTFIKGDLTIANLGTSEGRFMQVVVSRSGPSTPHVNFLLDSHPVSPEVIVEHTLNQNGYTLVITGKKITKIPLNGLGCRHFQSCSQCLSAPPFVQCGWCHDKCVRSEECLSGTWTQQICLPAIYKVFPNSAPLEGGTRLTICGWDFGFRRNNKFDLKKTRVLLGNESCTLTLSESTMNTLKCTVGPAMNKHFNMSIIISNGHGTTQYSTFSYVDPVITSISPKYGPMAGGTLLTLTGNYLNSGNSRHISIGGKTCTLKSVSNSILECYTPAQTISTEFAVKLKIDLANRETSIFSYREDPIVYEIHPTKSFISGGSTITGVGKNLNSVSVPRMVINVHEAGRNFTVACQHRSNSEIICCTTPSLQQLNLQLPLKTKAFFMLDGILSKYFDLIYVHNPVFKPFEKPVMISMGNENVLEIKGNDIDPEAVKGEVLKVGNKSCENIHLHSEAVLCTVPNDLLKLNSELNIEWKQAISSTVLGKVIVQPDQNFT

For the substance HGF (from UniProt P14210), the Kd (as a rule, the equilibrium constant for the complex coming apart) is 30 pM.
